Results reported in article PMC11066007, “CORVET-specific subunit levels determine the balance between HOPS/CORVET endosomal tethering complexes” (Scientific Reports, 2024).

T1: VPS8-FLAG (human, UniProt Q8N3P4 1-1428)
T1 construct: VPS8, human, CORVET-specific subunit; DNA region encoding the full-length protein fused with a FLAG tag; also called CORVET-specific VPS8; source: HEK293, stably transfected (pCMV3), in lysate; not shown: FLAG, C-terminal, kept
T1 sequence (looked up): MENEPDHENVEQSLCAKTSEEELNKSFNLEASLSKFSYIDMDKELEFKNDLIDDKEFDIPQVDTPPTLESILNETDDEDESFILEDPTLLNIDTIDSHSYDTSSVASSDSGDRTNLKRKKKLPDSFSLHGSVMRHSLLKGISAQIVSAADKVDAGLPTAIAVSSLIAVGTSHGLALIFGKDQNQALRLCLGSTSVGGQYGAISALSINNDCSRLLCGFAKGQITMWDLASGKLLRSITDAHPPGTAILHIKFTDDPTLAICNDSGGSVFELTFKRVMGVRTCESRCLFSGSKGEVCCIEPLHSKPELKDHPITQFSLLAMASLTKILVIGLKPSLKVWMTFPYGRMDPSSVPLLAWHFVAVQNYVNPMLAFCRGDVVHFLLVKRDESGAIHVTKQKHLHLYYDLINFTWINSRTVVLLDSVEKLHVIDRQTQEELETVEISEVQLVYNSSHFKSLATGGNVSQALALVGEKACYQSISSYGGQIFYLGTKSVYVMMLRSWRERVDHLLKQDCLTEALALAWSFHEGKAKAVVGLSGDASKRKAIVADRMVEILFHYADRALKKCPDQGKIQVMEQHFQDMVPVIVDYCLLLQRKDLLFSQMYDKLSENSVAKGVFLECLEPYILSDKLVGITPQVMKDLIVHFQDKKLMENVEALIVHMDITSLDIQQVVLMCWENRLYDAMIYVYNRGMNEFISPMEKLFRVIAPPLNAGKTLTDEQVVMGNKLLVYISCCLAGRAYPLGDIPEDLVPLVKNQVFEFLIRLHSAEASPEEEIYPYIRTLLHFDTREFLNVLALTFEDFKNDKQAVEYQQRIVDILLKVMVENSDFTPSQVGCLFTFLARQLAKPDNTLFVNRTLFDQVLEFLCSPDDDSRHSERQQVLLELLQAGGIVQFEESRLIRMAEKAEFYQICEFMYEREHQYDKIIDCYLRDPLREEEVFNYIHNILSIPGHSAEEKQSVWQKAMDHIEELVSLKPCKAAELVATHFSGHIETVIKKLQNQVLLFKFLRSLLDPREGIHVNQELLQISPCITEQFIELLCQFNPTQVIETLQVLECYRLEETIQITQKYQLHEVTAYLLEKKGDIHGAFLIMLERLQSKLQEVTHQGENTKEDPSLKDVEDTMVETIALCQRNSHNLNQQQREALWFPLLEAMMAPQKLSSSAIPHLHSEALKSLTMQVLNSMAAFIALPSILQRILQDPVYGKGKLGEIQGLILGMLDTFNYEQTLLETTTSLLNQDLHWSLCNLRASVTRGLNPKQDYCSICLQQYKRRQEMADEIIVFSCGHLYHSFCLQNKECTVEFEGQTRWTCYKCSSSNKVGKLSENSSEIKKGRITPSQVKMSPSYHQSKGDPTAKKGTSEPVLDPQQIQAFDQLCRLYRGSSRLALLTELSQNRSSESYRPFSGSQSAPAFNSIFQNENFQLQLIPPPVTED

T2: Tgfbrap1-FLAG (human, UniProt Q8WUH2 1-860)
T2 construct: Tgfbrap1, human, CORVET-specific subunit; DNA region encoding the full-length protein fused with a FLAG tag; also called CORVET-specific Tgfbrap1; not shown: FLAG, C-terminal, kept
T2 sequence (looked up): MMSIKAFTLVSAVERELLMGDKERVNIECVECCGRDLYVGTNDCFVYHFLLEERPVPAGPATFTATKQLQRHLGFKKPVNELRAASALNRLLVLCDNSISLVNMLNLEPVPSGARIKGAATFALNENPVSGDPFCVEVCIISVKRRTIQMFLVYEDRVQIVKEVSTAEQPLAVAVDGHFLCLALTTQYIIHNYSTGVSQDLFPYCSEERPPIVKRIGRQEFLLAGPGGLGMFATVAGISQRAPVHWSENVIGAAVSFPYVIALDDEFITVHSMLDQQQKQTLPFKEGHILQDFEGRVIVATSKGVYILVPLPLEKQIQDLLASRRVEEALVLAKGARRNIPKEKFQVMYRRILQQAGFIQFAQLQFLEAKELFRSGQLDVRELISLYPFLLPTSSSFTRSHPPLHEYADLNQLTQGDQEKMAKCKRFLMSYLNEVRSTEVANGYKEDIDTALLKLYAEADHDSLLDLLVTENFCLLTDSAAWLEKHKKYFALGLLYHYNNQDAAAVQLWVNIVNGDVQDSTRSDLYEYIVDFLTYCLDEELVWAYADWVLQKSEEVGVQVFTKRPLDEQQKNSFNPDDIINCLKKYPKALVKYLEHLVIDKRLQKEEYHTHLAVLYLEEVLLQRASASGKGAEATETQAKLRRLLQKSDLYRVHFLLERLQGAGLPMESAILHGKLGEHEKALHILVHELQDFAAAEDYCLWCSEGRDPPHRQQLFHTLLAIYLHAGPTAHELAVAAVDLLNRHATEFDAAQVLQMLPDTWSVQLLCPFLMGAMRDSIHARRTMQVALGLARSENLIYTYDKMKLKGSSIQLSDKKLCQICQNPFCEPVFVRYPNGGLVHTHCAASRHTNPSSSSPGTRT


What was measured:
[1] = target: T1, VPS8-FLAG; assay: co-IP; anti-FLAG beads on total lysates of HEK293 cells stably transfected with a FLAG-tagged specific subunit, with or without transient overexpression of the counterpart subunit (control: pCMV); endogenous VPS11 and VPS18 detected by western blot, densitometry with ImageJ; lysis buffer 50 mM TRIS-HCl pH 7.5, 150 mM NaCl, 1% Triton X-100, 5 mM EDTA; 1.5 h at 4 °C; conditions: partners not purified
[2] = target: T2, Tgfbrap1-FLAG; assay: as above; conditions: partners not purified

| relative amount bound with Vps41-HA overexpressed (control cells HEK + pCMV as reference) [1] | relative amount bound with Vps39-HA overexpressed (control cells HEK + pCMV as reference) [2] | Binder |
| --- | --- | --- |
| 1.21 relative to control cells | 1.31 relative to control cells | VPS18 (natural protein, human (endogenous in HEK293), UniProt Q9P253 1-973, looked up, VPS18, shared class C core subunit of HOPS and CORVET, detected by anti-VPS18 western blot in anti-FLAG precipitates; also called core subunit VPS18; source: endogenous, HEK293 lysate) MASILDEYENSLSRSAVLQPGCPSVGIPHSGYVNAQLEKEVPIFTKQRIDFTPSERITSLVVSSNQLCMSLGKDTLLRIDLGKANEPNHVELGRKDDAKVHKMFLDHTGSHLLIALSSTEVLYVNRNGQKVRPLARWKGQLVESVGWNKALGTESSTGPILVGTAQGHIFEAELSASEGGLFGPAPDLYFRPLYVLNEEGGPAPVCSLEAERGPDGRSFVIATTRQRLFQFIGRAAEGAEAQGFSGLFAAYTDHPPPFREFPSNLGYSELAFYTPKLRSAPRAFAWMMGDGVLYGALDCGRPDSLLSEERVWEYPEGVGPGASPPLAIVLTQFHFLLLLADRVEAVCTLTGQVVLRDHFLEKFGPLKHMVKDSSTGQLWAYTERAVFRYHVQREARDVWRTYLDMNRFDLAKEYCRERPDCLDTVLAREADFCFRQRRYLESARCYALTQSYFEEIALKFLEARQEEALAEFLQRKLASLKPAERTQATLLTTWLTELYLSRLGALQGDPEALTLYRETKECFRTFLSSPRHKEWLFASRASIHELLASHGDTEHMVYFAVIMQDYERVVAYHCQHEAYEEALAVLARHRDPQLFYKFSPILIRHIPRQLVDAWIEMGSRLDARQLIPALVNYSQGGEVQQVSQAIRYMEFCVNVLGETEQAIHNYLLSLYARGRPDSLLAYLEQAGASPHRVHYDLKYALRLCAEHGHHRACVHVYKVLELYEEAVDLALQVDVDLAKQCADLPEEDEELRKKLWLKIARHVVQEEEDVQTAMACLASCPLLKIEDVLPFFPDFVTIDHFKEAICSSLKAYNHHIQELQREMEEATASAQRIRRDLQELRGRYGTVEPQDKCATCDFPLLNRPFYLFLCGHMFHADCLLQAVRPGLPAYKQARLEELQRKLGAAPPPAKGSARAKEAEGGAATAGPSREQLKADLDELVAAECVYCGELMIRSIDRPFIDPQRYEEEQLSWL |
| 1.52 relative to control cells | 1.05 relative to control cells | VPS11 (natural protein, human (endogenous in HEK293), UniProt Q9H270 1-941, looked up, VPS11, shared class C core subunit of HOPS and CORVET, detected by anti-VPS11 western blot in anti-FLAG precipitates; also called core subunit VPS11; source: endogenous, HEK293 lysate) MAAYLQWRRFVFFDKELVKEPLSNDGAAPGATPASGSAASKFLCLPPGITVCDSGRGSLVFGDMEGQIWFLPRSLQLTGFQAYKLRVTHLYQLKQHNILASVGEDEEGINPLVKIWNLEKRDGGNPLCTRIFPAIPGTEPTVVSCLTVHENLNFMAIGFTDGSVTLNKGDITRDRHSKTQILHKGNYPVTGLAFRQAGKTTHLFVVTTENVQSYIVSGKDYPRVELDTHGCGLRCSALSDPSQDLQFIVAGDECVYLYQPDERGPCFAFEGHKLIAHWFRGYLIIVSRDRKVSPKSEFTSRDSQSSDKQILNIYDLCNKFIAYSTVFEDVVDVLAEWGSLYVLTRDGRVHALQEKDTQTKLEMLFKKNLFEMAINLAKSQHLDSDGLAQIFMQYGDHLYSKGNHDGAVQQYIRTIGKLEPSYVIRKFLDAQRIHNLTAYLQTLHRQSLANADHTTLLLNCYTKLKDSSKLEEFIKKKSESEVHFDVETAIKVLRQAGYYSHALYLAENHAHHEWYLKIQLEDIKNYQEALRYIGKLPFEQAESNMKRYGKILMHHIPEQTTQLLKGLCTDYRPSLEGRSDREAPGCRANSEEFIPIFANNPRELKAFLEHMSEVQPDSPQGIYDTLLELRLQNWAHEKDPQVKEKLHAEAISLLKSGRFCDVFDKALVLCQMHDFQDGVLYLYEQGKLFQQIMHYHMQHEQYRQVISVCERHGEQDPSLWEQALSYFARKEEDCKEYVAAVLKHIENKNLMPPLLVVQTLAHNSTATLSVIRDYLVQKLQKQSQQIAQDELRVRRYREETTRIRQEIQELKASPKIFQKTKCSICNSALELPSVHFLCGHSFHQHCFESYSESDADCPTCLPENRKVMDMIRAQEQKRDLHDQFQHQLKCSNDSFSVIADYFGRGVFNKLTLLTDPPTARLTSSLEAGLQRDLLMHSRRGT |
